# Test results reported in the DeepSol protein solubility set.
# Test: soluble on expression in E. coli; label from the status in PepcDB or PDB records
row,Sequence,soluble on expression in E. coli
1,MSDRNCYKCQQPGHISRNCPNGESDGGRRGGGGGSTCYNCQETGHFSRDCPKGGSGGGQRGGGGGGGSCYNCGGRGHYSRDCPSARSEGGSGGYGGRGGEGRSFGGQKCYNCGRSGHISRECTESGSAEEKRCYQCQETGHISRDCPSQTN,soluble
2,MNQFYKRHFLRLLDFTPAEIIALLDLATELKKDKKSGCEQQKLVGKNIALIFEKDSTRTRCSFEVAAYDQGARVTYLGPGGSQIGHKESIKDTARVLGRMYDGIQYRGYGQRVVETLAEFAGVPVWNGLTDEFHPTQLLADLLTMREHLPNKSLNKMTLAYLGDTRNNMGNSLLEAAALVGMDLRLVAPKACWPEEAFVISCQALAQKTGGKITLTEDIAEGVNGADFLYTDVWVSMGEPKEVWQERINLLKPYQVNMRVLTLTGNPQVKFLHCLPAFHDDQTTIGKQMAEQYDLPGGMEVTEEVFESAHSIVFDQAENRLHTIKAVMVATMSKI,not soluble
3,MVINQTFLQNNVMDKCNDKRKRGERDWDCPAEKDICISDRRYQLCMKELTNLVNNTRTHSHNDITFLKLNLKRKLMYDAAVEGDLLLKKNNYQYNKEFCKDIRWGLGDFGDIIMGTNMEGIGYSQVVENNLRSIFGTDEKAKQDRKQWWNESKEHIWRAMMFSLRSRLKEKFVWICKKDVTLKVEPQIYRWIREWGRDYMSELPKEQGKLNEKCASKLYYNNMAICMLPLCHDACKSYDQWITRKKKQWDVLSTKFSSVKKTQKIGTENIATAYDILKQELNGFKEATFENEINKRDNLYNHLCPCVVEEARKNTQENVKNVGSGVESKAASSNPITE,soluble
4,MAHHHHHHMGTLEAQTQGPGSMNDYKLFRCIQCGFEYDEALGWPEDGIAAGTRWDDIPDDWSCPDCGAAKSDFEMVEVARS,soluble
5,MPKHCSHLIIIPDGKMAAIPFEALIEKRPKHDTSSYAQMGFMIKKYATSYTYTASLYENTHEAAKVKKVLLFAPVDFSASSDLNALPGTLAEVDTLTSLCTNTAQADVYTYTAASKAVLVSDSLSGYSIIHLATHGLVDEEQPELSCIYTSGTSEENDRIYAGDMYNMHLNAALVSLSACQTGLGKIEKGEGMIGLSRALFYAGADNIMVSLWKVSDLSTQVYMQYFYSIYLSENFTTFAEAARISKIKLLNSETFNSPYYWAAFILIGKLEHHHHHH,not soluble
6,MAPKTGETVVEKMEVDEAKQDVPATEPAKDLNAIAVENIKEQLAALDKGEEHLITRVLQVLPKTRKQINDNVLYKLVSSHLSSDAQFAEGMLKYLHYTPAADTEVQPMDTSNVKTKSPKKGVKPVFASPESDCYLRLLVLLHLYAQKKNTEALALGENQLTSIYNFDRRTLDGLAAKTLYFLCVIYEREGRLFDHQGFLNSRLRTATLRNFSESQAVLICWLLRCYLINRQYQSAAHLVSKVAFPDNASNNDLARYMYYQGRIKALQLDYNSAAGYFLQAQRKAPQEGAIGFKQAVQKWVVVIGLLQGEIPDRSVFRQPIYRKCLAHYLDLSRGVRDGDVARFNHNLEQFKTQFEADDTLTLIVRLRQNVIKTAIKQISLAYSRIYIKDIAKKLYITNETETEYIVAKAIADGAIDAVITSDVRDGPRYMQSSETADIYRTSEPQAHFDTRIRYCLELHNQAVKALRYPPKKKIAVETIEQAREREQQELEFAKELADEDDDDF,not soluble
7,MAIQHPDIQPAVNHSVQVAIAGAGPVGLMMANYLGQMGIDVLVVEKLDKLIDYPRAIGIDDEALRTMQSVGLVDNVLPHTTPWHAMRFLTPKGRCFADIQPMTDEFGWPRRNAFIQPQVDAVMLEGVSRFPNVRCLFSRELEAFSQQDDEVTLHLKTAEGLREIVKAQWLVACDGGASFVRRTLNVPFEGKTAPNQWIVVDIANDPLSTPHIYLCCDPVRPYVSAALPHAVRRFEFMVMPGETEEQLREPQNMRKLLSKVLPNPDNVELIRQRVYTHNARLAQRFRIDRVLLAGDAAHIMPVWQGQGYNSGMRDAFNLAWKLALVIQGKARDALLDTYQQERRDHAKAMIDLSVTAGNVLAPPKRWQGTLRDGVSWLLNYLPPVKRYFLEMRFKPMPQYYGGALVREGEAKHSPVGKMFIQPKVTLENGDVTLLDNAIGANFAVIGWGCNPLWGMSDEQIQQWRALSTRFIQVVPEVQIHTAQDNHDGVLRVGDTQGRLRSWFAQHNASLVVMRPDRFVAATAIPQTLGKTLNKLASVMTLTRPDADVSVEKVA,not soluble
8,MEASKEFPGFPNDFHAFEVSPIPFDINSKELSLKNHSNRAILFKVKCTNNKRIRIEECSDILKPGNETTATIKKLVDTVDGDSLYVIYTLVGKEWHNERMSAWRCWERAKKQAVPTQCISVPIKRSSECEKKEKKYEKEKTKSED,soluble
9,MALKGEGLQGLLGRGEARLGVGGEEAFQVKGGLLAEPRHGRMGSPVGVQGDLARGVGEGVLPGEHPVEDDPGGVDVSLGARGQAPDELGGQVGGGAQEKGLLETLLGGAREVKVQEAGLPGVHQDVLGLHVPVDQALFVHVGEGEEELVEDPHRLGKRGAFPHPAAELLPRGVGQEEGGAFLQVQGLEDGVEVGVGEPSPHPKLPVPAGAGLRGEELEGVGGAEGVKGQVDPGQGPAGQGPHHPVAAREGFAHQAHRPHYTLRKPGYHGPMRGLVLSGGGARGFAHIGALEVFVEAGLDFEVVAGASMGAIVGALFAAGRSPQEILEIARNTPWLGILGFSFREALFSRGRLRRYLAEHLPQDFADLKRRLVVTAVEVRSGRVVYLFQGDLVSAVLASAAHPLLLRPVRREGLLLFDGGVLDNLPVDAARFLGAEEVWAVDVTPERSVEKPPEGVLGLALRAVDLMQHHLTASRMALYAPEVYLRPELGEVAVQDFLRLEEAVEAGRKAAKRFLESRVGEV,soluble
10,MHHHHHHSSGLVPRGSGMKETAAAKFERQHMDSPDLGTDDDDKAMADIGSEFDMANIAVQRIKREFKEVLKSEETSKNQIKVDLVDENFTELRGEIAGPPDTPYEGGRYQLEIKIPETYPFNPPKVRFITKIWHPNISSVTGAICLDILKDQWAAAMTLRTVLLSLQALLAAAEPDDPQDAVVANQYKQNPEMFKQTARLWAHVYAGAPVSSPEYTKKIENLCAAGFDRNAVIVALSSKSWDVETATELLLSN,soluble
11,MSELVEMEVHGITLDPTTQMPIVVLKGKEDENLILPIWIGAFEANGIAMKLQGVEPPRPMTYELLKNIITEMGGNVEKVVINDLKDSTYYAEIYINQGNNTLVIDSRPSDAINLALRFGAPIYVAEHVLEQSKLPEPEEDEEKKKLREWLENIKPEDFEIGGEKSLEHHHHHH,soluble
12,MAVVPIRIVGDPVLHTATTPVTVAADGSLPADLAQLIATMYDTMDAANGVGLAANQIGCSLRLFVYDCAADRAMTARRRGVVINPVLETSEIPETMPDPDTDDEGCLSVPGESFPTGRAKWARVTGLDADGSPVSIEGTGLFARMLQHETGHLDGFLYLDRLIGRYARNAKRAVKSHGWGVPGLSWLPGEDPDPFGH,soluble
13,MRKMADPLVPKEALEWFKSKGIKPGFDYRDVWKEEQANAFTVAKMLNADLLVEVKQLVEDAIGQGQTFEQFRDILKPLLVKSGWWGVQTMQDPLTDETKLVQLGSEGRIKTIYKTNMRTARSAGQWERIQRTKRTMPYLLYQLGPSEQHRIEHLKWNNTLLPADDPWWDVHMTPNGWGCKCWIRQVSQYEADKLIAAGTVKTTVPASKNKQWVNRRTGEVEVLPEGIDPGWNYNPGKNREKMLAADLALKESRMRQTLANGS,soluble
14,MRDAALRYPNILFDLDGTLTDPREGITRSVQFALARLGIDEPDLARLEHFIGPPLLQCFMQTYGFDEARAWEAVNHYRERFRVTGLYENRVFDGIPELLEALVGRGHTLYVATSKPGVFAREIARHFAFDRHFKAIYGSELDGTRTHKEELIRHLLDSEGLAAEHCLMIGDRMHDLLGASRNGVACIGVGYGFGSEDELRAHQPTHYCADLAALRQVLESH,not soluble
15,MENKTVNQVIHYVYEGGGEAATDHNATVVFSQTITTDKVTGEKTYSDWTADNGDSFASVTSPVIDGYTADQLKVSEMTGITVDTEDISVTVTYTRNQGTIDVTYIDETTGKILEHHHHHH,not soluble
16,MRVHVPAQDAREAVRQAAATTGDADVLSETDRRLLATAHELDGTLVSDDYAMQNVAAELAVTVESISQDGITERRDWRLQCQGCGREFDDTDHDRCPVCGSPLERKNPSLEHHHHHH,not soluble
